Assay results reported in US20120315277A1, “Compositions and Methods for the Therapy and Diagnosis of Influenza” (priority 2011, published 2012).

Molecular target: M2 protein of influenza A/Puerto Rico/8/34 (H1N1) on cells (influenza A virus A/Puerto Rico/8/34 (H1N1)) (UniProt P06821)
Experiment: FACS, MDCK cells infected with A/Puerto Rico/8/34

Chain of M2 protein of influenza A/Puerto Rico/8/34 (H1N1) on cells (influenza A virus A/Puerto Rico/8/34 (H1N1)) (P06821 whole entry): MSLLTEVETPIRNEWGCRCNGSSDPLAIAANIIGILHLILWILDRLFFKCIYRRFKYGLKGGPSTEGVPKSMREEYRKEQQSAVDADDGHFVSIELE

**Q.** For “14C2 (chimeric mouse V-region/human IgG1 kappa 14C2 antibody)”, which EC50 (read off the curve) is on record?
**A.** Its EC50 (read off the curve) is 300 ng/mL.
